This is an account of results in article PMC11255334, “Acetyl-CoA synthetase activity is enzymatically regulated by lysine acetylation using acetyl-CoA or acetyl-phosphate as donor molecule” (Nature Communications, 2024).

The target of experiment [1] is T1, AcsA from Chloroflexota bacterium (Chloroflexota bacterium, UniProt Z9YKO5Y7U4).
T1 construct: monomer in solution and crystal; expression and tag not described; His476 found phosphorylated
T1 sequence (Z9YKO5Y7U4 9-657): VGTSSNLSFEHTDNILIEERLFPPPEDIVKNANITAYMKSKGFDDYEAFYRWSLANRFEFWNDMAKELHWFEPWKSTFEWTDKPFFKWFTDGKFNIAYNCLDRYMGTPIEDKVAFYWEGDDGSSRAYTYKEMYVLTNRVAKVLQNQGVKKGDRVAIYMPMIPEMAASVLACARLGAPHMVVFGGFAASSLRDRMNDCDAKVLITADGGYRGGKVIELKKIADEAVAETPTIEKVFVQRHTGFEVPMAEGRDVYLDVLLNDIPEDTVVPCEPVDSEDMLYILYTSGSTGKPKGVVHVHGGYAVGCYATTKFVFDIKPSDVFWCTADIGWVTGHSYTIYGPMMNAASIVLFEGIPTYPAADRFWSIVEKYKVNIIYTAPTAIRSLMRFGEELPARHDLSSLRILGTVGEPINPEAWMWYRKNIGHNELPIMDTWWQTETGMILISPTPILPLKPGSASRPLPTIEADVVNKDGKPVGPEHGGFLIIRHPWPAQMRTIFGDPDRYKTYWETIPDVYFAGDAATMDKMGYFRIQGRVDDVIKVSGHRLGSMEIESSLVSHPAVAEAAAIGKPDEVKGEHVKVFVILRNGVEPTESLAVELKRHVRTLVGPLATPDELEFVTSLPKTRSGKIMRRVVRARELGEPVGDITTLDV
Nature of the experiment: X-ray crystallography. In kind it is binding. Conditions: product of the first half-reaction; thioester-forming conformation.

Experiment [2] addresses Bacillus subtilis AMP-forming acetyl-CoA synthetase AcsA (Bacillus subtilis) (UniProt P39062). Nature of the experiment: SEC; analytical SEC of equimolar AcsA and AcuA (wild type or mutants), incubated 30 min at room temperature, Superdex 200 10/300 GL, 50 mM Tris/HCl pH 8, 50 mM KCl, 2 mM β-mercaptoethanol; 100 µl of 50–100 µM; without ligand or with a tenfold molar excess of CoA or AcP alone. A general note: Size exclusion chromatography separates by hydrodynamic size, large species first.

Experiment [3] has as its target T2, AcsA V477A (Bacillus subtilis, UniProt P39062 1-572, V477A).
T2 construct: AcsA, Bacillus subtilis, UniProt P39062, with V477A
T2 sequence (looked up): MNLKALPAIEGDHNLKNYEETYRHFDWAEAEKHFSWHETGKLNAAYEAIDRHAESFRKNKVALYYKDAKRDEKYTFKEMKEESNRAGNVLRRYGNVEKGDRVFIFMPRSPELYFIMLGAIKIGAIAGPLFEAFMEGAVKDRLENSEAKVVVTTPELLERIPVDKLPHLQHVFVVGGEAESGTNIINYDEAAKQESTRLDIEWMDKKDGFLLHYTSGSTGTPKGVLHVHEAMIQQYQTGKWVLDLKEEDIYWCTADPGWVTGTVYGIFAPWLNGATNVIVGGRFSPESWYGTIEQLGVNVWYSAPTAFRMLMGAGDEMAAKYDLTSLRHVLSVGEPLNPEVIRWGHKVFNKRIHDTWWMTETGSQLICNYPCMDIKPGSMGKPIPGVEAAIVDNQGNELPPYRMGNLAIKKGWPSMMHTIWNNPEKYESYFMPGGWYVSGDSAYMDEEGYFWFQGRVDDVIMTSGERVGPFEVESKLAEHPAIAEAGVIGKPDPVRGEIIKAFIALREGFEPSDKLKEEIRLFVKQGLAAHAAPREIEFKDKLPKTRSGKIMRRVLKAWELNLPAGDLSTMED
The experiment is described as above. As to conditions: both partners purified.

Experiment [4] has as its target T3, AcsA K549R (Bacillus subtilis, UniProt P39062 1-572, K549R).
T3 construct: AcsA, Bacillus subtilis, UniProt P39062, with K549R; also called non-acetylated mutant AcsA K549R
T3 sequence (looked up): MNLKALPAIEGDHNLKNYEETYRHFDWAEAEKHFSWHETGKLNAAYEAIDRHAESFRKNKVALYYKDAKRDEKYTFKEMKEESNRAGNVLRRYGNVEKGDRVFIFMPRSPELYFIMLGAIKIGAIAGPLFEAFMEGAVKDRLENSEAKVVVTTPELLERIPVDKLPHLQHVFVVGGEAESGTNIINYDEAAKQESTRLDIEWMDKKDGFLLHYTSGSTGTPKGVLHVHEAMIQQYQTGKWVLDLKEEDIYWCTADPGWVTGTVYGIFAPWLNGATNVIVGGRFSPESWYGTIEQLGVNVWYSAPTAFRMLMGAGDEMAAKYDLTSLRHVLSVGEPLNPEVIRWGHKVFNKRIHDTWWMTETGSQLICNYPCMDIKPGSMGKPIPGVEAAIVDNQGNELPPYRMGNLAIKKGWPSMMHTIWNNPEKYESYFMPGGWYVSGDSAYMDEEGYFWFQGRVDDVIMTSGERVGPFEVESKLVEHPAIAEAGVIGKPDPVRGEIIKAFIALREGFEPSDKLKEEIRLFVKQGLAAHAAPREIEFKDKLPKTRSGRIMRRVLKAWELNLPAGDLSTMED
The experiment is described as above. Conditions: both partners purified.

Experiment [5] deals with T4, AcsA E473A (Bacillus subtilis, UniProt P39062 1-572, E473A).
T4 construct: AcsA, Bacillus subtilis, UniProt P39062, with E473A
T4 sequence (looked up): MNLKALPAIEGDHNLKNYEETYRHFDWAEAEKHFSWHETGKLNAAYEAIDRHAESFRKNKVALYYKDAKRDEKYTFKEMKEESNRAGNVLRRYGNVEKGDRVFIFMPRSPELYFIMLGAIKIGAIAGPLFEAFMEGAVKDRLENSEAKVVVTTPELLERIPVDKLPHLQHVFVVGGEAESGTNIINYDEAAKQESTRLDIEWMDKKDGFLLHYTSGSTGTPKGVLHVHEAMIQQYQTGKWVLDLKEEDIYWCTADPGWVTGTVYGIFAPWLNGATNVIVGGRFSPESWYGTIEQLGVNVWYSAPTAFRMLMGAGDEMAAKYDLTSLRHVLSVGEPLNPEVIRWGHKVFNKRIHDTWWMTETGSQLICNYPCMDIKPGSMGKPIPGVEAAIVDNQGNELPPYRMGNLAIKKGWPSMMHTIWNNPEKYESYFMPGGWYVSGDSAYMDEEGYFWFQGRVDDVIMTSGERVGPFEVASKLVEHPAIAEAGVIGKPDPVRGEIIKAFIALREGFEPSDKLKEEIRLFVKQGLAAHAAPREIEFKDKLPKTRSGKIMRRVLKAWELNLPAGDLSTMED
Described as above. Conditions: both partners purified.

Experiment [6] concerns the target T5, AcsA K549Q (Bacillus subtilis, UniProt P39062 1-572, K549Q).
T5 construct: AcsA, Bacillus subtilis, UniProt P39062, with K549Q; also called acetylation-mimetic mutant AcsA K549Q
T5 sequence (looked up): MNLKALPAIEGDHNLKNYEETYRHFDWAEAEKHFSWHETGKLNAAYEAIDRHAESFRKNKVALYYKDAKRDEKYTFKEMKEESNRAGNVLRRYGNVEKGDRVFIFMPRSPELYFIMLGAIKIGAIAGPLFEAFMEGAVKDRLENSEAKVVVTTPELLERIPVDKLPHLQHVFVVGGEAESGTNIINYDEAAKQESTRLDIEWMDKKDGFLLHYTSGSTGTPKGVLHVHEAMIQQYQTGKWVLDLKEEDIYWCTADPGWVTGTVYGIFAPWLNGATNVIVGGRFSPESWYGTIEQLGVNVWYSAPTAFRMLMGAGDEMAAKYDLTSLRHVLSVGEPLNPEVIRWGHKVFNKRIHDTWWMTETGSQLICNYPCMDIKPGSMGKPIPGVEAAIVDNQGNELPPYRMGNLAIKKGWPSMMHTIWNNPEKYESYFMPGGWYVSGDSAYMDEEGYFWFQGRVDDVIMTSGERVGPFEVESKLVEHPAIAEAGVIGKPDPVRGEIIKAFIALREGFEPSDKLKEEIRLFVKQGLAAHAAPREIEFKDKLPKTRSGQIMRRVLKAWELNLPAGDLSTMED
The experiment is described as above. Conditions: both partners purified.

As to `CC(=O)OP(=O)(O)OC[C@H]1O[C@@H](n2cnc3c(N)ncnc32)[C@H](O)[C@@H]1O` [acetyl-AMP], the X-ray crystallography result in experiment [1] was “structure solved in complex with acetyl-AMP, i.e. the product of the first half-reaction”.

B1: Bacillus subtilis acetyltransferase AcuA (enzyme, UniProt P39065 1-210, looked up)
chain: MEHHKTYHSANIKTATGSLLIEGPVSPEDLAGYEFHKDLTAFRPPREQHEALVDIAGLPEGRIIIARDGRTIVGYVTYLYPDPLERWSEGNMEDLIELGAIEVAPDYRGCAVGKTLLTVSMMDEQMENYIVMTTEYYWHWDLKGMKKDVWEYRKIMEKMMNAGGLVWFATDEPEISSHPANCLMARIGKNVSQESIEQFDRLRFYHRYMY
notes: GNAT-related lysine acetyltransferase AcuA, Bacillus subtilis, UniProt P39065; synthetic gene codon optimized for E. coli; also called AcuA wildtype; AcuA WT; source: E. coli BL21 (DE3), pET45b(+), purified (HisTrap FF, Ni2+)
In turn, B1 gave a stoichiometry N (AcuA per AcsA (2:2)) in experiment [2] of 1. Moreover, the binding result in experiment [3], in experiment [4], in experiment [5] and in experiment [6] was “binds” each time.
